B1: tRNASer1(cmo5UGA) (structured_RNA)
RNA: GGAAGUGUGGCCGAGCGGUUGAAGGCACCGGUCUUGAAAACCGGCGACCCGAAAGGGUUCCAGAGUUCGAAUCUCUGCGCUUCCGCCA
modifications: cmo5U34; i6A37 (partly ms2i6A37); other native tRNA modifications
B2: Escherichia coli CmoM (wild type, recombinant) (enzyme, E. coli)
chain: QDRNFDDIAEKFSRNIYGTTKGQLRQAILWQDLDRVLAEMGPQKLRVLDAGGGEGQTAIKMAERGHQVILCDLSAQMIDRAKQAAEAKGVSDNMQFIHCAAQDVASHLETPVDLILFHAVLEWVADPRSVLQTLWSVLRPGGVLSLMFYNAHGLLMHNMVAGNFDYVQAGMPKKKKRTLSPDYPRDPAQVYLWLEEAGWQIMGKTGVRVFHDYLREKHQQRDCYEALLELETRYCRQEPYITLGRYIHVTARKPQSKDKV
notes: CmoM, SAM-dependent tRNA cmo5U34 methyltransferase of E. coli; cmoM gene on pCA24N from the ASKA library; calculated monomer molecular weight 31.7 kDa; 257 protein residues modelled in the crystal structure; also called E. coli CmoM; source: E. coli BL21 (DE3), purified (HisTrap HP Ni2+ column); not shown: His tag (inferred from the HisTrap Ni2+ purification)

Experiments:
CmoM = molecular target: T1, CmoM (Escherichia coli (ASKA library clone), UniProt P36566 1-261); test: X-ray crystallography (2.22 A); sinefungin (3 mM); Mg2+ (0.04 M magnesium acetate in reservoir); Crystallization: CmoM:tRNA 1:4 molar ratio, 3 mM sinefungin; reservoir 0.04 M Mg acetate, 0.05 M Na cacodylate pH 6.0, 30% MPD, 25 C; protein in 25 mM HEPES pH; conditions: protein: recombinant; tags: His tag (ASKA pCA24N vector; HisTrap purified); tRNA fold with 16-nt variable arm
T1 sequence: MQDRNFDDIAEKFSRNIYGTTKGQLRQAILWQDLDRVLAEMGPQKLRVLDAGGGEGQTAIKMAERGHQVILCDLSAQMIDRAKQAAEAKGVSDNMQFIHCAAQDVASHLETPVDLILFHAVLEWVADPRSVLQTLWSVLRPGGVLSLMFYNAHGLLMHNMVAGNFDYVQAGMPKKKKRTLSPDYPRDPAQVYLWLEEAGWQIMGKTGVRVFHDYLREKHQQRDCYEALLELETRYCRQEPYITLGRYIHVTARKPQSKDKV

[1] = molecular target: the molecule itself; test: SEC; Superdex 75 column, 100 ug wild-type CmoM, 25 mM HEPES pH 7.5, 150 mM NaCl, 0.5 ml/min; ovalbumin (44 kDa) and MnmC (76 kDa) run for comparison

Row | Binder | binding result (CmoM) | stoichiometry N [1]
1 | B1 | binds | –
2 | B2 | – | 2

Source: PMC10516636, “Structural basis for the selective methylation of 5-carboxymethoxyuridine in tRNA modification” (Nucleic Acids Research, 2023)
